From publication PMC2175253

Experiments:
Test in all cases: two-hybrid
[1] = molecular target: α-catenin, full-length (pBTM116-HA-α-catenin) (mouse) (UniProt P26231)
[2] = molecular target: nectin-2α cytoplasmic region (pBTM116-HA-nectin-2α-CP) (mouse)
[3] = molecular target: α-catenin COOH-terminal half (pBTM116-HA-α-catenin-C) (mouse) (UniProt P26231)

Chain of nectin-2α cytoplasmic region (pBTM116-HA-nectin-2α-CP) (mouse) (P32507 387-467): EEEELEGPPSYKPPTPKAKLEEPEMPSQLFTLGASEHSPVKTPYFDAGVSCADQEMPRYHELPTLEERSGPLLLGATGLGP

l-afadin (pGAD424-HA-l-afadin), full-length, HA-tagged and fused with the GAL4 activation domain (from UniProt O35889-1 1-1829) (natural protein)
β-galactosidase activity (units of β-galactosidase activity) [1]: < 1
β-galactosidase activity (units of β-galactosidase activity) [2]: 41
β-galactosidase activity (units of β-galactosidase activity) [3]: 30
